Laboratory results taken from patent publication US20060228349A1 (published 2006).

Legend:
[1] = biological target: T1, Biotinylated ADDL preparations (bADDLs) (N-terminal biotin); assay: BIACORE, bADDL as antigen; column IgG1#1
T1 construct: Oligomer, number of copies not fixed; also called biotinylated ADDL antigen; high molecular weight 10% bADDL

biotin-Aβ1-20 [2] = biological target: T2, biotin-Aβ1-20 (biotin (position not given)); assay: BIACORE, biotin-Aβ1-20 as antigen; column IgG1#1
T2 peptide: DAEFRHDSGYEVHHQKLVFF

[3] = biological target: T1, Biotinylated ADDL preparations (bADDLs); assay: BIACORE, bADDL as antigen; column Fab
biotin-Aβ1-20 [4] = biological target: T2, biotin-Aβ1-20; assay: BIACORE, biotin-Aβ1-20 as antigen; column Fab

Binder | Kd [1] [nM] | Kd (biotin-Aβ1-20 [2]) [nM] | Kd [3] [nM] | Kd (biotin-Aβ1-20 [4]) [nM]
20C2-1A, affinity matured humanized 20C2, IgG1 humanized A version (antibody, V domains shown, also called SJ-p2-60) VH: QVTLKESGPALVKPTQTLTLTCTFSGFSLSTSGMGVGWIRQPPGKALEWLAHIWWDDDKSYNPSLKSRLTISKDTSKNQVVLTMTNMDPVDTATYYCARRQLGLRSIDAMDYWGQGTTVTVSS VL: DVVMTQSPLSLPVTPGEPASISCRSSQSILHSNGNTYLEWYLQKPGQSPQLLIYKVSNRFSGVPDRFSGSGSGTDFTLKISRVEAEDVGVYYCFQASRVPLTFGQGTKLEIKR | 0.075 | 1.2 | – | –
20C2-6A Fab fragment (clone 4P1-22) (Fab, V domains shown) VH: QVTLKESGPALVKPTQTLTLTCTFSGFSLSTSGMGVGWIRQPPGKALEWLAHIWWDDDKSYNPSLKSRLTISKDTSKNQVVLTMTNMDPVDTATYYCARRQLGLRSIDAMDYWGQGTTVTVSS VL: DVVMTQSPLSLPVTPGEPASISCRSSQSILHSNGNTYLEWYLQKPGQSPQLLIYKVSNRFSGVPDRFSGSGSGTDFTLKISRVEAEDVGVYYCFQSSRVPLTFGQGTKLEIKR | – | – | 42 | 18
20C2-13A, affinity matured humanized 20C2, IgG1 humanized A version (antibody, V domains shown, also called 4p1-20; 4P1-20) VH: QVTLKESGPALVKPTQTLTLTCTFSGFSLSTSGMGVGWIRQPPGKALEWLAHIWWDDDKSYNPSLKSRLTISKDTSKNQVVLTMTNMDPVDTATYYCARRQLGLRSIDAMDYWGQGTTVTVSS VL: DVVMTQSPLSLPVTPGEPASISCRSSQSILHSNGNTYLEWYLQKPGQSPQLLIYKVSNRFSGVPDRFSGSGSGTDFTLKISRVEAEDVGVYYCLQTSNVPLTFGQGTKLEIKR | 0.764 | 3 | – | –
20C2-18A Fab fragment (clone SJ-p1-9M) (Fab, V domains shown) VH: QVTLKESGPALVKPTQTLTLTCTFSGFSLSTSGMGVGWIRQPPGKALEWLAHIWWDDDKSYNPSLKSRLTISKDTSKNQVVLTMTNMDPVDTATYYCARRQLGLRSIDAMDYWGQGTTVTVSS VL: DVVMTQSPLSLPVTPGEPASISCRSSQSILHSNGNTYLEWYLQKPGQSPQLLIYKVSNRFSGVPDRFSGSGSGTDFTLKISRVEAEDVGVYYCMQSSFVPLTFGQGTKLEIKR | – | – | 85 | 126
20C2-20A, affinity matured humanized 20C2, IgG1 humanized A version (antibody, V domains shown, also called SJ-p3-15) VH: QVTLKESGPALVKPTQTLTLTCTFSGFSLSTSGMGVGWIRQPPGKALEWLAHIWWDDDKSYNPSLKSRLTISKDTSKNQVVLTMTNMDPVDTATYYCARRQLGLRSIDAMDYWGQGTTVTVSS VL: DVVMTQSPLSLPVTPGEPASISCRSSQSILHSNGNTYLEWYLQKPGQSPQLLIYKVSNRFSGVPDRFSGSGSGTDFTLKISRVEAEDVGVYYCFQGSLFPPVFGQGTKLEIKR | 6.9 | 21 | – | –
20C2-5A Fab fragment (clone SJ-p2-1F) (Fab, V domains shown) VH: QVTLKESGPALVKPTQTLTLTCTFSGFSLSTSGMGVGWIRQPPGKALEWLAHIWWDDDKSYNPSLKSRLTISKDTSKNQVVLTMTNMDPVDTATYYCARRQLGLRSIDAMDYWGQGTTVTVSS VL: DVVMTQSPLSLPVTPGEPASISCRSSQSILHSNGNTYLEWYLQKPGQSPQLLIYKVSNRFSGVPDRFSGSGSGTDFTLKISRVEAEDVGVYYCFQSSFVPLTFGQGTKLEIKR | – | – | 41 | 41
20C2-24A, affinity matured humanized 20C2, IgG1 humanized A version (antibody, V domains shown, also called SJ-p2-44) VH: QVTLKESGPALVKPTQTLTLTCTFSGFSLSTSGMGVGWIRQPPGKALEWLAHIWWDDDKSYNPSLKSRLTISKDTSKNQVVLTMTNMDPVDTATYYCARRQLGLRSIDAMDYWGQGTTVTVSS VL: DVVMTQSPLSLPVTPGEPASISCRSSQSILHSNGNTYLEWYLQKPGQSPQLLIYKVSNRFSGVPDRFSGSGSGTDFTLKISRVEAEDVGVYYCGQTTLVPLTFGQGTKLEIKR | 0.114 | 1.9 | – | –
20C2-12A, affinity matured humanized 20C2, IgG1 humanized A version (antibody, V domains shown, also called 4P1-32) VH: QVTLKESGPALVKPTQTLTLTCTFSGFSLSTSGMGVGWIRQPPGKALEWLAHIWWDDDKSYNPSLKSRLTISKDTSKNQVVLTMTNMDPVDTATYYCARRQLGLRSIDAMDYWGQGTTVTVSS VL: DVVMTQSPLSLPVTPGEPASISCRSSQSILHSNGNTYLEWYLQKPGQSPQLLIYKVSNRFSGVPDRFSGSGSGTDFTLKISRVEAEDVGVYYCLQSSLVPLTFGQGTKLEIKR | 0.015 | 1.5 | – | –
20C2-2A Fab fragment (clone SJ-p1-18) (Fab, V domains shown) VH: QVTLKESGPALVKPTQTLTLTCTFSGFSLSTSGMGVGWIRQPPGKALEWLAHIWWDDDKSYNPSLKSRLTISKDTSKNQVVLTMTNMDPVDTATYYCARRQLGLRSIDAMDYWGQGTTVTVSS VL: DVVMTQSPLSLPVTPGEPASISCRSSQSILHSNGNTYLEWYLQKPGQSPQLLIYKVSNRFSGVPDRFSGSGSGTDFTLKISRVEAEDVGVYYCFQATRVPLTFGQGTKLEIKR | – | – | 28 | 28
20C2-6B, affinity matured humanized 20C2, IgG1 humanized B version (antibody, V domains shown, also called 4P1-22) VH: QVTLKESGPALVKPTQTLTLTCTLSGFSLSTSGMGVGWIRQPPGKALEWLAHIWWDDDKSYNPSLKSRLTISKDTSKNQVVLTMTNMDPVDTATYYCARRQLGLRSIDAMDYWGQGTTVTVSS VL: DVVMTQSPLSLPVTPGEPASISCRSSQSILHSNGNTYLEWYLQKPGQSPQLLIYKVSNRFSGVPDRFSGSGSGTDFTLKISRVEAEDVGVYYCFQSSRVPLTFGQGTKLEIKR | 0.053 | 0.053 | – | –
20C2-9A Fab fragment (clone SJ-p2-51) (Fab, V domains shown) VH: QVTLKESGPALVKPTQTLTLTCTFSGFSLSTSGMGVGWIRQPPGKALEWLAHIWWDDDKSYNPSLKSRLTISKDTSKNQVVLTMTNMDPVDTATYYCARRQLGLRSIDAMDYWGQGTTVTVSS VL: DVVMTQSPLSLPVTPGEPASISCRSSQSILHSNGNTYLEWYLQKPGQSPQLLIYKVSNRFSGVPDRFSGSGSGTDFTLKISRVEAEDVGVYYCVQTSLVPLTFGQGTKLEIKR | – | – | 40 | 36
20C2-1A Fab fragment (clone SJ-p2-60) (Fab, V domains shown) VH: QVTLKESGPALVKPTQTLTLTCTFSGFSLSTSGMGVGWIRQPPGKALEWLAHIWWDDDKSYNPSLKSRLTISKDTSKNQVVLTMTNMDPVDTATYYCARRQLGLRSIDAMDYWGQGTTVTVSS VL: DVVMTQSPLSLPVTPGEPASISCRSSQSILHSNGNTYLEWYLQKPGQSPQLLIYKVSNRFSGVPDRFSGSGSGTDFTLKISRVEAEDVGVYYCFQASRVPLTFGQGTKLEIKR | – | – | 85 | 91
20C2-10A, affinity matured humanized 20C2, IgG1 humanized A version (antibody, V domains shown, also called 20C2-1GA; SJ-p3-33) VH: QVTLKESGPALVKPTQTLTLTCTFSGFSLSTSGMGVGWIRQPPGKALEWLAHIWWDDDKSYNPSLKSRLTISKDTSKNQVVLTMTNMDPVDTATYYCARRQLGLRSIDAMDYWGQGTTVTVSS VL: DVVMTQSPLSLPVTPGEPASISCRSSQSILHSNGNTYLEWYLQKPGQSPQLLIYKVSNRFSGVPDRFSGSGSGTDFTLKISRVEAEDVGVYYCFQGSRLPVSFGQGTKLEIKR | 7.7 | 84 | – | –
20C2-12A Fab fragment (clone 4P1-32) (Fab, V domains shown) VH: QVTLKESGPALVKPTQTLTLTCTFSGFSLSTSGMGVGWIRQPPGKALEWLAHIWWDDDKSYNPSLKSRLTISKDTSKNQVVLTMTNMDPVDTATYYCARRQLGLRSIDAMDYWGQGTTVTVSS VL: DVVMTQSPLSLPVTPGEPASISCRSSQSILHSNGNTYLEWYLQKPGQSPQLLIYKVSNRFSGVPDRFSGSGSGTDFTLKISRVEAEDVGVYYCLQSSLVPLTFGQGTKLEIKR | – | – | 238 | 617
20C2-13A Fab fragment (clone 4p1-20) (Fab, V domains shown) VH: QVTLKESGPALVKPTQTLTLTCTFSGFSLSTSGMGVGWIRQPPGKALEWLAHIWWDDDKSYNPSLKSRLTISKDTSKNQVVLTMTNMDPVDTATYYCARRQLGLRSIDAMDYWGQGTTVTVSS VL: DVVMTQSPLSLPVTPGEPASISCRSSQSILHSNGNTYLEWYLQKPGQSPQLLIYKVSNRFSGVPDRFSGSGSGTDFTLKISRVEAEDVGVYYCLQTSNVPLTFGQGTKLEIKR | – | – | 567 | 94
20C2-18A, affinity matured humanized 20C2, IgG1 humanized A version (antibody, V domains shown, also called SJ-p1-9M) VH: QVTLKESGPALVKPTQTLTLTCTFSGFSLSTSGMGVGWIRQPPGKALEWLAHIWWDDDKSYNPSLKSRLTISKDTSKNQVVLTMTNMDPVDTATYYCARRQLGLRSIDAMDYWGQGTTVTVSS VL: DVVMTQSPLSLPVTPGEPASISCRSSQSILHSNGNTYLEWYLQKPGQSPQLLIYKVSNRFSGVPDRFSGSGSGTDFTLKISRVEAEDVGVYYCMQSSFVPLTFGQGTKLEIKR | 0.149 | 1.8 | – | –
20C2-7A Fab fragment (clone SJ-p2-27) (Fab, V domains shown) VH: QVTLKESGPALVKPTQTLTLTCTFSGFSLSTSGMGVGWIRQPPGKALEWLAHIWWDDDKSYNPSLKSRLTISKDTSKNQVVLTMTNMDPVDTATYYCARRQLGLRSIDAMDYWGQGTTVTVSS VL: DVVMTQSPLSLPVTPGEPASISCRSSQSILHSNGNTYLEWYLQKPGQSPQLLIYKVSNRFSGVPDRFSGSGSGTDFTLKISRVEAEDVGVYYCLNSTTVPLTFGQGTKLEIKR | – | – | 435 | 128
20C2-8A Fab fragment (clone SJ-p2-39) (Fab, V domains shown) VH: QVTLKESGPALVKPTQTLTLTCTFSGFSLSTSGMGVGWIRQPPGKALEWLAHIWWDDDKSYNPSLKSRLTISKDTSKNQVVLTMTNMDPVDTATYYCARRQLGLRSIDAMDYWGQGTTVTVSS VL: DVVMTQSPLSLPVTPGEPASISCRSSQSILHSNGNTYLEWYLQKPGQSPQLLIYKVSNRFSGVPDRFSGSGSGTDFTLKISRVEAEDVGVYYCLQTTRVPLTFGQGTKLEIKR | – | – | 13 | 14
20C2-3A, affinity matured humanized 20C2, IgG1 humanized A version (antibody, V domains shown, also called SJ-p3-16) VH: QVTLKESGPALVKPTQTLTLTCTFSGFSLSTSGMGVGWIRQPPGKALEWLAHIWWDDDKSYNPSLKSRLTISKDTSKNQVVLTMTNMDPVDTATYYCARRQLGLRSIDAMDYWGQGTTVTVSS VL: DVVMTQSPLSLPVTPGEPASISCRSSQSILHSNGNTYLEWYLQKPGQSPQLLIYKVSNRFSGVPDRFSGSGSGTDFTLKISRVEAEDVGVYYCFQGSFIPGTFGQGTKLEIKR | 3.7 | 1.7 | – | –
